Reference: patent US20030087394, “Insulin related transcription factor and uses thereof” (published 2003)

Molecular target: RIPE3b1 47-kDa protein (mMafA), affinity purified and SDS-PAGE eluted (UniProt A0A1U7RCQ9 A0A1U7RCQ9:1-361)
Experiment: pulldown; streptavidin agarose affinity purification
Conditions: tags: from HIT T-15 nuclear extract; label: 5' biotin top strand
Procedure: This HP fraction contained about 85% of the recovered RIPE3b 1 factor with a 2.5-fold purification. The RIPE3b binding factor was then affinity purified from the HP fraction using a 5′ biotinylated RIPE3b oligonucleotide and streptavidin agarose. The purified fractions were analyzed for binding to a rat insulin II-139 to -101 bp probe by EMSA [FIG. 3, (24)]. The −139 to −101 bp probe contains the RIPE3b and overlapping A2 elements. Five distinct factors (RIPE3b1, RIPE3b2 and three A2 specific complexes) can bind the −139 to −101 bp probe. Thus the −139 to −101 bp probe serves as a good indicator of the purification process. The RIPE3b1 binding activity was eluted in two fractions and was the predominant DNA binding activity in these fractions. RIPE3b1 binding activity was purified 95-fold as compared to the HP fraction […]. The purified fraction was next analyzed on a 10% SDS-PAGE gel along with the starting HIT T-15 nuclear extract and HP fraction. […] The regions corresponding to the individual protein bands were cut; the proteins were then eluted and analyzed for the RIPE3b1 binding activity. […]

Chain of RIPE3b1 47-kDa protein (mMafA), affinity purified and SDS-PAGE eluted (A0A1U7RCQ9 entry or part of it): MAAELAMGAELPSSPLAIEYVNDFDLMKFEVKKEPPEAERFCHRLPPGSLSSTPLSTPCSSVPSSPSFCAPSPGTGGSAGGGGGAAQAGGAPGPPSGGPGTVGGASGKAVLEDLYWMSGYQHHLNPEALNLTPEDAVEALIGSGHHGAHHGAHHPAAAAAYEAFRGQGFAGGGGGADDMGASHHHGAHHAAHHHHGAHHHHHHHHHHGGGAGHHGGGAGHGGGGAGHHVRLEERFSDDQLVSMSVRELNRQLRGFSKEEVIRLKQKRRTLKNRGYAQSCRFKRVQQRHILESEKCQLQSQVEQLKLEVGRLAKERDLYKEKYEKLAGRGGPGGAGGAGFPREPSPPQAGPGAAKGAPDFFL

B1: biotinylated RIPE3b (-126 to -101) dimer (dsDNA)
DNA 1: TGACTGGAAACTGCAGCTTCAGCCCCTCTGGAAACTGCAGCTTCAGCCCCAC
DNA 2: GTGGGGCTGAAGCTGCAGTTTCCAGAGGGGCTGAAGCTGCAGTTTCCAGTCA
binding result: binds
